# Source: PMC12557367, ““Precision on Two Wheels”–Structural Refinement of ^64Cu- and ^68Ga-Labeled Bicyclic Peptides Targeting Nectin‑4 for Improved Tumor Imaging: From Preclinical Development to First-in-Human Application” (Journal of Medicinal Chemistry, 2025)
# Numbered stars: 1 amine (or outer) side, 2 acyl side, 3 side chain; on linkers, the order of the positions; unused ones are H or OH. Bridge positions count the residues as written; N and C are the ends. Square brackets hold non-standard residues; d marks the D form. * marks the point of attachment. (R)‑NODAGA = O=C(O)CN1CCN(CC(=O)O)CCN([C@H](CCC(=O)*)C(=O)O)CC1; 6FAM = O=C1OC2(c3ccc(O)cc3Oc3cc(O)ccc32)c2cc(C(=O)*)ccc21; DOTA = O=C(O)CN1CCN(CC(=O)O)CCN(CC(=O)*)CCN(CC(=O)O)CC1; TATA = O=C(CC[*:1])N1CN(C(=O)CC[*:2])CN(C(=O)CC[*:3])C1; Ser(et) = O-ethylserine, CCOC[C@H](N[*:1])C(=O)[*:2]; Mox = methoxinine, COCC[C@H](N[*:1])C(=O)[*:2]; 1Nal = N[C@@H](Cc1cccc2ccccc12)C(=O)O; 2Nal = N[C@@H](Cc1ccc2ccccc2c1)C(=O)O; Hyp = O=C(O)[C@@H]1C[C@@H](O)CN1; hArg = N=C(N)NCCCC[C@H](N)C(=O)O; Met(O) = CS(=O)CC[C@H](N)C(=O)O; SeMet = C[Se]CC[C@H](N)C(=O)O; Nle = CCCC[C@H](N)C(=O)O
# T1: nectin-4 on intact HT-1376 cells (human (endogenous in HT-1376), UniProt Q96NY8 32-510)
# T1 construct: also called cellular nectin-4
# T1 sequence (looked up): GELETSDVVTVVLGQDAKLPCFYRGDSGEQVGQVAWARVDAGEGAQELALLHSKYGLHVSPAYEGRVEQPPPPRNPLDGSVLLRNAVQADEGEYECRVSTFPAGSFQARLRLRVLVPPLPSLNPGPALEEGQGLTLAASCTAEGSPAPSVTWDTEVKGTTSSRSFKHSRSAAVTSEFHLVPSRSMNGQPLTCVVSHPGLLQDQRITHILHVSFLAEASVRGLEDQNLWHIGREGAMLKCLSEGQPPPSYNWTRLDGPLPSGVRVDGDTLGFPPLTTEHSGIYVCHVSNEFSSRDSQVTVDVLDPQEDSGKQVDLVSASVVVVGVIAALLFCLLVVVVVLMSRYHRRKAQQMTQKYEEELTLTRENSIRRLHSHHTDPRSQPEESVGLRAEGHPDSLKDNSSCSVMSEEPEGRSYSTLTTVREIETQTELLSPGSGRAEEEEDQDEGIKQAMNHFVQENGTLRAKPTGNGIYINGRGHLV
# T2: recombinant human nectin-4 (human, UniProt Q96NY8 32-349)
# T2 construct: nectin-4, human, recombinant; also called complete extracellular domain of nectin-4; source: bought: R&D Systems (Catalog number 2659-N4)
# T2 sequence (looked up): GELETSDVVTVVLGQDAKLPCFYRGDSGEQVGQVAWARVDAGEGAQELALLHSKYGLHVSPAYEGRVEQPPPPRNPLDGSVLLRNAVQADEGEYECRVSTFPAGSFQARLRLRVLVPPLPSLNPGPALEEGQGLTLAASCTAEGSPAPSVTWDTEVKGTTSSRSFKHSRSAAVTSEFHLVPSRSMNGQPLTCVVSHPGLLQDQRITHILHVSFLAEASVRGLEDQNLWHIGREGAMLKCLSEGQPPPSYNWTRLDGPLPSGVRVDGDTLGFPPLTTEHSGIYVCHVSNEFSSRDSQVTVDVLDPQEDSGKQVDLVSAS
# B1: 6 (peptide)
# chain: {(R)‑NODAGA}-CP[1Nal][dD]C[Ser(et)][hArg]DWSTP[Hyp]WC-NH2
# modifications: linker 1-5-15 via TATA
# SMILES: CCOC[C@@H]1NC(=O)[C@@H]2CSCCC(=O)N3CN(CN(C3)C(=O)CCSC[C@H](NC(=O)CC[C@H](C(=O)O)N3CCN(CC(=O)O)CCN(CC(=O)O)CC3)C(=O)N3CCC[C@H]3C(=O)N[C@@H](Cc3cccc4ccccc34)C(=O)N[C@H](CC(=O)O)C(=O)N2)C(=O)CCSC[C@@H](C(N)=O)NC(=O)[C@H](Cc2c[nH]c3ccccc23)NC(=O)[C@@H]2C[C@@H](O)CN2C(=O)[C@@H]2CCCN2C(=O)[C@H]([C@@H](C)O)NC(=O)[C@H](CO)NC(=O)[C@H](Cc2c[nH]c3ccccc23)NC(=O)[C@H](CC(=O)O)NC(=O)[C@H](CCCCNC(=N)N)NC1=O
# Target: T1, nectin-4 on intact HT-1376 cells
# Assay: radioligand binding; saturation binding on intact HT-1376 cells, 10 radioligand concentrations (0.156-80 or 0.321-160 nM), 37 °C, 1 h, PBS wash; nonspecific with 1 µM 1d; apparent (covers binding and putative internalisation)
# Conditions: one partner purified
row,Binder,Kd [nM]
1,{DOTA}-CP[2Nal][dD]CMRDWSTP[Hyp]WC-OH (linker 1-5-15 via TATA; also: DOTA complexed with 68Ga) [[68Ga]Ga-8d ([68Ga]Ga-N188)],222
2,{(R)‑NODAGA}-CP[2Nal][dD]CMRDWSTP[Hyp]WC-NH2 (linker 1-5-15 via TATA; also: NODAGA complexed with 64Cu) [[64Cu]Cu-8a],51.7
3,{(R)‑NODAGA}-CP[1Nal][dD]C[Mox][hArg]DWSTP[Hyp]WC-NH2 (linker 1-5-15 via TATA; also: NODAGA complexed with 68Ga) [[68Ga]Ga-4],13.1
4,{(R)‑NODAGA}-CP[1Nal][dD]CM[hArg]DWSTP[Hyp]WC-NH2 (linker 1-5-15 via TATA; also: NODAGA complexed with 68Ga) [[68Ga]Ga-1e],8.7
5,{(R)‑NODAGA}-CP[1Nal][dD]CM[hArg]DWSTP[Hyp]WC-NH2 (linker 1-5-15 via TATA; also: NODAGA complexed with 64Cu) [[64Cu]Cu-1e],7.15
6,{DOTA}-CP[2Nal][dD]CMRDWSTP[Hyp]WC-NH2 (linker 1-5-15 via TATA; also: DOTA complexed with 68Ga) [[68Ga]Ga-8c],103

# Target: T1, nectin-4 on intact HT-1376 cells
# Assay: radioligand binding; intact HT-1376 cells, 10 nM radioligand, 37 °C, 1 h, PBS wash; nonspecific binding with 1 µM 1d (3a for [68Ga]Ga-8d); specific binding in fmol/mg protein
# Conditions: one partner purified
row,Binder,specific cell binding at 10 nM radioligand [fmol/mg]
1,{(R)‑NODAGA}-CP[2Nal][dD]CMRDWSTP[Hyp]WC-NH2 (linker 1-5-15 via TATA; also: NODAGA complexed with 64Cu) [[64Cu]Cu-8a],15.6
2,{(R)‑NODAGA}-CP[1Nal][dD]CM[hArg]DWSTP[Hyp]WC-NH2 (linker 1-5-15 via TATA; also: NODAGA complexed with 68Ga) [[68Ga]Ga-1e],474
3,{(R)‑NODAGA}-CP[1Nal][dD]CM[hArg]DWSTP[Hyp]WC-NH2 (linker 1-5-15 via TATA; also: NODAGA complexed with 64Cu) [[64Cu]Cu-1e],159
4,{DOTA}-CP[2Nal][dD]CMRDWSTP[Hyp]WC-NH2 (linker 1-5-15 via TATA; also: DOTA complexed with 68Ga) [[68Ga]Ga-8c],38.4

# Target: T2, recombinant human nectin-4
# Assay: SPR; Biacore T200, human nectin-4 immobilised on CM5 chip by amine coupling, peptides as analytes, single-cycle kinetics, 25 °C, HBS-P+ pH 7.4, no DMSO, 1:1 binding model
# Conditions: both partners purified
Binder,Kd [nM],koff [s⁻¹],kon [M⁻¹ s⁻¹]
{DOTA}-CP[2Nal][dD]CMRDWSTP[Hyp]WC-NH2 (linker 1-5-15 via TATA) [8c],127,0.00239,20000
{DOTA}-CP[1Nal][dD]CM[hArg]DWSTP[Hyp]WC-NH2 (linker 1-5-15 via TATA) [1f],1.31,0.0115,8.76e+06
B1,6.29,0.0247,3.86e+06
{DOTA}-CP[2Nal][dD]CMRDWSTP[Hyp]WC-OH (linker 1-5-15 via TATA) [8d (N188)],236,0.00881,40000
{(R)‑NODAGA}-CP[1Nal][dD]CM[hArg]DWSTP[Hyp]WC-NH2 (linker 1-5-15 via TATA) [1e],3.6,0.00434,1.21e+06
{(R)‑NODAGA}-CP[1Nal][dD]CM[hArg]DWSTP[Hyp]WC-NH2 (linker 1-5-15 via TATA; also: NODAGA complexed with natGa) [natGa-1e],2.39,0.0026,1.1e+06
{(R)‑NODAGA}-CP[2Nal][dD]CMRDWSTP[Hyp]WC-NH2 (linker 1-5-15 via TATA) [8a],63,0.0433,680000
{(R)‑NODAGA}-CP[2Nal][dD]CM[hArg]DWSTP[Hyp]WC-NH2 (linker 1-5-15 via TATA) [9],4.58,0.0765,1.69e+07
{(R)‑NODAGA}-CP[1Nal][dD]CMRDWSTP[Hyp]WC-NH2 (linker 1-5-15 via TATA) [10],2.51,0.00278,1.11e+06
{(R)‑NODAGA}-CP[1Nal][dD]C[Nle][hArg]DWSTP[Hyp]WC-NH2 (linker 1-5-15 via TATA) [3a],1.31,,

# Target: T2, recombinant human nectin-4
# Assay: fluorescence polarisation; fluorescence anisotropy, competition: 1 nM probe 1a, 20 nM nectin-4, 10 concentrations of nonlabeled peptide, 37 °C, HEPES buffer pH 7.4, 1% DMSO; IC50 transformed into Kd (Nikolovska-Coleska equation, Kd of 1a 0.94 nM)
# Conditions: both partners purified
row,Binder,Kd [nM]
1,H-CP[1Nal][dD]CM[hArg]DWSTP[Hyp]WC-NH2 (linker 1-5-15 via TATA) [1c],1.51
2,{DOTA}-CP[2Nal][dD]CMRDWSTP[Hyp]WC-NH2 (linker 1-5-15 via TATA) [8c],149
3,{DOTA}-CP[1Nal][dD]CM[hArg]DWSTP[Hyp]WC-NH2 (linker 1-5-15 via TATA) [1f],7.22
4,{(R)‑NODAGA}-CP[1Nal][dD]CM[hArg]DWSTP[Hyp]WC-NH2 (linker 1-5-15 via TATA; also: NODAGA complexed with natCu) [natCu-1e],0.23
5,Ac-CP[1Nal][dD]C[Nle][hArg]DWSTP[Hyp]WC-NH2 (linker 1-5-15 via TATA) [3b],0.58
6,B1,16.4
7,{DOTA}-CP[2Nal][dD]CMRDWSTP[Hyp]WC-OH (linker 1-5-15 via TATA) [8d (N188)],191
8,{(R)‑NODAGA}-CP[1Nal][dD]C[Nle][hArg]DWSTP[Hyp]WC-NH2 (linker 1-5-15 via TATA; also: NODAGA complexed with natCu) [natCu-3a],1.22
9,{(R)‑NODAGA}-CP[1Nal][dD]CM[hArg]DWSTP[Hyp]WC-NH2 (linker 1-5-15 via TATA) [1e],0.77
10,{(R)‑NODAGA}-CP[1Nal][dD]C[SeMet][hArg]DWSTP[Hyp]WC-NH2 (linker 1-5-15 via TATA) [5],1.37
11,{(R)‑NODAGA}-CP[1Nal][dD]CM[hArg]DWSTP[Hyp]WC-NH2 (linker 1-5-15 via TATA; also: NODAGA complexed with natGa) [natGa-1e],4.47
12,{(R)‑NODAGA}-CP[1Nal][dD]C[Met(O)][hArg]DWSTP[Hyp]WC-NH2 (linker 1-5-15 via TATA; also: Met(O): mixture of diastereomers) [2],25
13,{(R)‑NODAGA}-CP[2Nal][dD]CMRDWSTP[Hyp]WC-NH2 (linker 1-5-15 via TATA) [8a],21
14,Ac-CP[1Nal][dD]CM[hArg]DWSTP[Hyp]WC-NH2 (linker 1-5-15 via TATA) [1d (BCY8126)],0.73
15,{(R)‑NODAGA}-CP[2Nal][dD]CM[hArg]DWSTP[Hyp]WC-NH2 (linker 1-5-15 via TATA) [9],11.5
16,{(R)‑NODAGA}-CP[1Nal][dD]CMRDWSTP[Hyp]WC-NH2 (linker 1-5-15 via TATA) [10],0.61
17,{(R)‑NODAGA}-CP[1Nal][dD]C[Nle][hArg]DWSTP[Hyp]WC-NH2 (linker 1-5-15 via TATA) [3a],1.04

# Target: T2, recombinant human nectin-4
# Assay: fluorescence polarisation; fluorescence anisotropy, direct binding: 1 nM fluorescent probe, 11 to 13 concentrations of nectin-4 (e.g. 0.06-250 nM), 37 °C, 1200 s, HEPES buffer 20 mM pH 7.4, 0.01% Tween20, NaCl, 1% DMSO; Morrison equation
# Conditions: both partners purified
row,Binder,Kd [nM]
1,6FAM-CP[2Nal][dD]CMRDWSTP[Hyp]WC-NH2 (linker 1-5-15 via TATA) [8b],1.38 ± 0.06
2,6FAM-CP[1Nal][dD]CM[hArg]DWSTP[Hyp]WC-NH2 (linker 1-5-15 via TATA) [1b],0.17 ± 0.01
